# In patent publication US20070031445A1 (BOARD OF REGENTS OF THE UNIVERSITY OF NEBRASKA, published 2007):
# Where no end group is shown, it is not given here. [ ]: non-standard residue; d: D form.
# T1: C5a receptor (C5aR) expressed on the surface of human PMNs (human, UniProt P21730 1-350)
# T1 sequence (looked up): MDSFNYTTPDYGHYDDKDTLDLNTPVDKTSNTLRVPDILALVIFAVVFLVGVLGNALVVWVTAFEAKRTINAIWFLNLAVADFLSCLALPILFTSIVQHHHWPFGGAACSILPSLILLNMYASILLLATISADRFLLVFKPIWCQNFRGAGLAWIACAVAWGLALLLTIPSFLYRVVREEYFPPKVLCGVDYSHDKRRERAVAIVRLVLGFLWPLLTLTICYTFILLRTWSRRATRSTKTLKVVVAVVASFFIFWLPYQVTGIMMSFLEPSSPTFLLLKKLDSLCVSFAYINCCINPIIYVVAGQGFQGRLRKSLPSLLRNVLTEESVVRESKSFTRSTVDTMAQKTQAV
# Columns and labels:
# [1] = biological target: T1, C5a receptor (C5aR) expressed on the …; assay: cell-based or functional assay
# [2] = biological target: T1, C5a receptor (C5aR) expressed on the …; assay: cell-based or functional assay; remark: listed apart in the source
# [3] = biological target: T1, C5a receptor (C5aR) expressed on the …; assay: competition with 125I-C5a on intact human PMNs
# Method: Statistical analysis of the values obtained from pharmacologic assays was performed using one-way analysis of variance (ANOVA).
# [4] = biological target: T1, C5a receptor (C5aR) expressed on the …; assay: competition with 125I-C5a on intact human PMNs (column headed EC50; 50% inhibition of 125I-C5a binding)
Binder,"EC50, smooth muscle contraction of human umbilical artery [1]","pD2, smooth muscle contraction of human umbilical artery [1]","EC50, MPO release from human PMNs [2]","pD2, MPO release from human PMNs [2]",pD2 (-log IC50 (M)) [3],IC50 [4]
IPQSLDSWWTSLRRYSFKPMPL[dA]RG (Synthetic peptide),6.78 µM,5.17 -log EC50 (M),2.56 µM,5.59 -log EC50 (M),4.77 -log IC50 (M),17 µM
IPQSLDSWWTSLYSFKPMPL[dA]R (Synthetic peptide; also called C5a-active construct without linker) [IPQSLDSWWTSLYSFKPMPLaR (HBsAg CTL epitope attached directly to N-terminus of the C5a agonist)],0.21 µM,6.68 -log EC50 (M),1.58 µM,5.8 -log EC50 (M),5.43 -log IC50 (M),3.69 µM
IPQSLDSWWTSLRVRRYSFKPMPL[dA]R (Synthetic peptide; also called RVRR-containing construct) [IPQSLDSWWTSLRVRRYSFKPMPLaR (RVRR furin-sensitive-linked C5a-active construct)],0.18 µM,6.67 -log EC50 (M),2.15 µM,5.61 -log EC50 (M),6.28 -log IC50 (M),0.529 µM
"YSFKPMPL[dA]RRRIPQSLDSWWTSL (Synthetic peptide) [YSFKPMPLa[…] (C5a-inactive construct, C-terminus of agonist blocked by the HBsAg CTL epitope)]",39.4 µM,4.41 -log EC50 (M),> 1000 µM,,3.33 -log IC50 (M),465 µM
YSFKPMPL[dA]R (Synthetic peptide; also called C5a agonist; peptide (2)) [C5a C-terminal decapeptide agonist analog YSFKPMPLaR],0.01 µM,,,,5.63 -log IC50 (M),2.34 µM
"natural C5a (ligand, UniProt P01031 678-751, looked up, 125I label on the tracer form used in the competition assay, C5a is only a fragment of it) TLQKKIEEIAAKYKHSVVKKCCYDGACVNNDETCEQRAARISLGPRCIKAFTECCVVASQLRANISHKDMQLGR",0.002 µM,,0.003 µM,,9.43 -log IC50 (M),0.0004 µM
IPQSLDSWWTSLRRYSFKPMPL[dA]R (Synthetic peptide; also called RR-containing construct) [IPQSLDSWWTSLRRYSFKPMPLaR (double-Arg-linked C5a-active construct)],0.161 µM,6.79 -log EC50 (M),0.54 µM,6.27 -log EC50 (M),6.38 -log IC50 (M),0.416 µM
